According to patent US11497796B2, “Agents directed against a cis RGMa/neogenin interaction or lipid rafts and use of the same in methods of treatment” (UNIVERSITY HEALTH NETWORK, priority 2013, dated 2022):
Each block holds one molecule with its values, some of them ahead of it.

Legend:
[1] = target: T1, 6FNIII-domain of Neogenin (Gallus gallus, UniProt Q90610); assay: ELISA / AP binding assay of RGMa peptides to Neogenin domains; settings: Neogenin domains fused to AP
T1 construct: made in house
T1 sequence (Q90610 429-1036): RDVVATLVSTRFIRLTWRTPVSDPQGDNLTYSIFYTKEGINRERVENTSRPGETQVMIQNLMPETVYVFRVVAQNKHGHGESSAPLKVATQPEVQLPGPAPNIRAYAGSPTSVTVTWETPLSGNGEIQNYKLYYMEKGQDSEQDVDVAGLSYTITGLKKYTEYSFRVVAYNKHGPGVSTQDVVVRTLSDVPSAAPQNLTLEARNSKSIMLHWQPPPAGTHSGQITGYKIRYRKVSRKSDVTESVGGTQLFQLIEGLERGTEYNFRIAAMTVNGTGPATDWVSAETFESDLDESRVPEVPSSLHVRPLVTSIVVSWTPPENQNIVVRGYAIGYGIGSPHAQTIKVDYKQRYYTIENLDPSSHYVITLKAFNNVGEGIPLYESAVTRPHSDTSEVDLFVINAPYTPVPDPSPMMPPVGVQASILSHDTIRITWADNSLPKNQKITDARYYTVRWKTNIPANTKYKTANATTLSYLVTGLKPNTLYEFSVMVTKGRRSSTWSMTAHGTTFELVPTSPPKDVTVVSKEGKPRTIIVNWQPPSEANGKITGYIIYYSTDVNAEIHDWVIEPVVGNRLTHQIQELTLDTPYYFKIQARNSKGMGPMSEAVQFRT
Text: (§1) Specifically, the 4Ig-domain and 6FNIII-domain of Neogenin were each fused to alkaline phosphatase (AP). The 4Ig-domain and 6FNIII-domain of Neogenin were found in the extracellular portion of Neogenin. Accession No. AAC59662 (SEQ ID NO:1) was the amino acid sequence of Neogenin. The 4Ig-domain was amino acids 1 to 383 of Accession No. AAC59662 (SEQ ID NO:1). The 6FNIII-domain was amino acids 429 to 1036 of Accession No. AAC59662 (SEQ ID NO:1).
(§2) The binding of these fusions to various RGMa peptides were analyzed in an ELISA assay (FIG. 2A).
(§3) To determine if distinct N-terminal regions of RGMa bound the 4Ig- and 6FNIII-domains of Neogenin, peptides were generated that spanned the N-terminal region of RGMa. The amino acid sequence of RGMa was Accession No. NP_989868.1 (SEQ ID NO:6). These peptides were a peptide spanning amino acids 28-73 of RGMa (also referred to herein as “N-Raft”) and a peptide spanning amino acids 77-113 of RGMa (also referred to herein as “N-inh”). […] In a complementary experiment, in which the N-Raft and N-inh peptides of RGMa were fused with AP instead of the 4Ig- and 6FNIII-domains of Neogenin, N-Raft bound to the 4Ig-domain and not the 6FNIII-domain while N-inh bound to the 6FNIII-domain and not the 4Ig-domain (FIG. 9). Additionally, N-inh and N-Raft coated beads pulled down 6FNIII-domain and 4Ig-domain, respectively, which was consistent with the ELISA results described above (FIG. 2B).
(§4) The assay was conducted in a 96-well microtiter plate (Corning Incorporated). The wells were coated with 100 μl (10 μg/mL) of Poly-L-Lysine at 4° C. overnight. Wells were then washed three times with 100 μl of PB ST (+0.02% Tween).
(§5) 50 μl (2.5 μg/mL) of His-tagged: Full-length Neogenin; the 4Ig-domain of Neogenin; and 6FNIII-domain of Neogenin were coated onto each well for 1 hour at 37° C. Following three washes of 100 μl PBST, each well was then blocked with 300 μl of 3% BSA in PBST for 1 hour at 37° C.
(§6) 50 μl (1.0 μg/mL) AP-tagged: N-RGMa (28-73); N-RGMa (28-54); N-RGMa (40-62); N-RGMa (54-73); N-RGMa (54-62) in 1% BSA+PBST was then added to each well and incubated at 37° C. for 1 hour. Each well was washed thoroughly three times with 100 μl PBST followed by subsequent equilibration of each well with Alkaline Phosphatase (AP) developing buffer (100 mM NaHCO3, 1 mM MgCl2). The reaction was developed using AP developing buffer supplemented with, p-nitrophenyl phosphate (pNPP) (Sigma-Aldrich) and allowed to develop until color development. The reaction was stopped with the addition of 50 μl (0.1M) NaOH. The absorbance of each reaction was measured using a microplate autoreader (BIO-TEK Instruments Inc.) at 405 nanometers (nm) wavelength.

[2] = target: T2, 6FNIII-domain of Neogenin (His-6FNIII) (Gallus gallus, UniProt Q90610); assay: Pull-down assay with peptide-coated beads; format: binding; settings: Western blot with anti-His
T2 construct: His; made in house
T2 sequence (Q90610 429-1036): T1 sequence (Q90610 429-1036)
Procedure: (A) RGMa proteins were incubated on plates coated with 4Ig- or 6FNIII-AP. One C- and one N-RGMa domain (N-RGMa^77-113) interacted with 6FNIII. One N-RGMa domain (N-Raft) interacted with 4Ig. (B) Supernatants (Sup) from cells expressing His-6FNIII or His-4Ig, were pulled down (IP) with beads coated with N-Raft, N-RGMa^50-99, and N-inh. Western Blot was then performed with an anti-His antibody to reveal whether or not His-6FNIII or His-4Ig interacted with the coated beads. […] Data are average±SEM (n=3 independent experiments), *p<0.0001. Scale bar, 100 μm. (E) Chick brains were injected with control peptide (Ctrl; N-RGMa^50-99), 4Ig, N-Raft, or Noggin 1 day before preparing membrane fractionations. In control experiments, Neogenin localized to the Flotillin/RGMa-containing lipid raft fraction (as shown in solid lined boxes). 4Ig, N-Raft, or Noggin shifted Neogenin to heavy fractions.
Proteins were coupled to activated CNBr Sepharose beads (Pharmacia) according to supplier instructions. Supernatants from transfected cells were added to coupled beads for 2 h at room temperature (RT). Beads were then washed 6× with PBS plus 0.02% Tween 20, and SDS loading buffer was added. Samples were boiled and subjected to Western blotting.

[3] = test system: temporal retinal explants (axonal outgrowth); assay: Retinal explants outgrowth assay; format: cell-based, chick; settings: for effect on axonal outgrowth when provided as growth substrate (in trans): protein as substrate
Procedure: Poly-L-Lysine (SIGMA; 10 μg/ml) coated glass coverslips were treated with Laminin (Invitrogen; 10 μg/ml) and RGMa proteins (5 μg/ml) and incubated for 3 hours at room temperature. Temporal retinal explants were cultured on protein-coated surfaces for 18 hours. To disrupt the lipid rafts, explants were pretreated with 10 mM methyl-β-cyclodextrin (MβCD) for 12 minutes or 2 U/ml cholesterol oxidase (CO) for 1 hour at 37° C. Explants were then fixed with 4% paraformaldehyde (PFA) and stained with Alexa488-phalloidin. Fiber length was quantified using Image Pro 5.0. For immunolocalization, explants were treated with Cholera Toxin B-FITC (C1655; Sigma; 10 mg/mL) and patched, fixed and stained with Neogenin antibody. Retinal ganglion cells (RGCs) were electroporated with RGMa-His and cultured for 18 hours. The cells were fixed and stained with Neogenin and His-tag antibodies.
(§7) Retinal explants outgrowth assay. Poly-L-Lysine (PLL; SIGMA; 10 μg/ml) coated glass coverslips were treated with Laminin (10 μg/ml; Invitrogen) and RGMa proteins (5 μg) and incubated for 3 hrs at room temperature. PLL treated coverslips were coated with myelin overnight (6 μg/cm2), followed by coating with Laminin. Temporal retinal explants were cultured on either myelin or protein-coated surfaces in DMEM F-12 media (2% chick serum, 10% FBS) for 18 h. To disrupt rafts, explants were pre-treated with 10 mM MβCD for 12 min or 2 U/ml CO for 1 h at 37° C., washed, and cultured on protein coated coverslips. Explants were then fixed with 4% PFA and stained with Alexa488-fluor-phalloidin (1:50; Molecular Probes). Fiber length was quantified using Image Pro 5.0.
Statistical analysis of retinal outgrowth assays was performed using Student's two-tail t-test using Excel (Microsoft). Results were expressed as the mean±SEM (n=at least 3 independent experiments; 2 duplicates per independent experiment, >10 explants per duplicate).

[4] = test system: retinal explants (retinal ganglion cell neurites); assay: Retinal explant neurite outgrowth on laminin or myelin; format: cell-based, chick; settings: AY-9944 1 μM, BM15.766 4 μM, 18 hrs
Procedure: as §7
Specifically, retinal explants were prepared from E7 chick embryos, cultured on coverslips coated with on Laminin or myelin, and treated with control (DMSO) or AY-9944 (1 μM) or BM15.766 (4 μM), two inhibitors of cholesterol biosynthesis. After 18 hrs in culture, explants were fixed with 4% PFA and stained with Alexa488-Phalloidin. Neurites were measured using Cellsens software. Retinal explants were cultured on laminin (control) or myelin (the inhibitory compound of the CNS). On laminin, axon growth was normal compared to myelin because myelin inhibited outgrowth.

photoreceptor cells = assay: Photoreceptor survival in rd1 mice (retinitis pigmentosa model); format: in vivo, mouse
Procedure: The rd1 mouse model is a model for human RP and carried a loss-of-function mutation in the gene encoding for the β-subunit of the rod photoreceptor cGMP phosphodiesterase-6.2. This loss-of-function mutation led to an accumulation of cGMP, which caused photoreceptor cell death.
In these studies, intraocular injection of the 4Ig (2 μg/μl) peptide at P9 and P15 was performed and animals were sacrificed at P21 to examine cell survival. […] Injection of 4Ig increased outer nuclear layer (ONL) thickness to about 6 cells (FIG. 19). This measurement was the average thickness of the ONL.
As described above, cholesterol depletion removes lipid rafts. Specifically, mice were treated with daily […] (IP) injections of MβCD from P9 to P21.
To examine the effect of reducing cholesterol synthesis on cell survival, AY-9944 was examined in rd1 mice (FIGS. 20 and 21). Rd1 mice were treated using two intra-peritoneal injections of AY-9944, at P9 and P15 and sacrificed at P21.

4Ig-domain of Neogenin = target: T3, 4Ig-domain of Neogenin (Gallus gallus, UniProt Q90610); assay: ELISA / AP binding assay of RGMa peptides to Neogenin domains; settings: for interaction with the 4Ig-domain of Neogenin: ELISA, Neogenin domains fused to AP
T3 construct: made in house
T3 sequence (Q90610 1-383): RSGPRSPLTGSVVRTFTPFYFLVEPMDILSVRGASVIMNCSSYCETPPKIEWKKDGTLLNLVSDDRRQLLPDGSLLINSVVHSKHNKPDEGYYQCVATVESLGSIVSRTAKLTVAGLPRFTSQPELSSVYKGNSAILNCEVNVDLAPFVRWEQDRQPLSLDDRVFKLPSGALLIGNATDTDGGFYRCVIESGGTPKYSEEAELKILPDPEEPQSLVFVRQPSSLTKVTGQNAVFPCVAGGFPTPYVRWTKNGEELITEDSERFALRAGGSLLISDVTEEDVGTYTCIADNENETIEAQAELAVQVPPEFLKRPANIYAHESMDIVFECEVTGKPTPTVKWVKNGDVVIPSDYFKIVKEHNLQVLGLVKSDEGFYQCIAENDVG
Text: as §1, §2, §3, §4, §5, §6

interaction with the 6FNIII-domain of Neogenin [1]: interacted
pull-down of 6FNIII-domain by peptide-coated beads [2]: pulled down
Molecule: N-inh: peptide spanning amino acids 77-113 of RGMa (GDLAYHSAVHGIDDLMVQHNCSKDGPTSQPRLRTLPP; left off: small tags and cut ends)
axonal growth on peptide as substrate ([3]; RGMa peptide as substrate, controls 238.1±9.3 μm): 88.1±13.3 μm

Molecule: O=C(O)c1ccc(CCN2CCN(C/C=C/c3ccc(Cl)cc3)CC2)cc1 [BM15.766]
outgrowth on laminin [4]: did not influence outgrowth on laminin
outgrowth on myelin [4]: restored outgrowth on myelin

Molecule: Clc1ccccc1CNCC1CCC(CNCc2ccccc2Cl)CC1 (stereo not shown) [AY-9944]
number of rods within the Outer Nuclear Layer (anti-Rhodopsin) (photoreceptor cells; injected at P9, P21): dramatic increase in the number of rods
photoreceptor survival (photoreceptor cells; two intra-peritoneal injections at P9 and P15, sacrificed at P21): promoted photoreceptor survival
outgrowth on laminin [4]: did not influence outgrowth on laminin
outgrowth on myelin [4]: restored outgrowth on myelin

binding to the 4Ig-domain of Neogenin (4Ig-domain of Neogenin; AP-tagged fragments 1.0 μg/mL on coated His-tagged 4Ig): did not bind
interaction with the 4Ig-domain of Neogenin (4Ig-domain of Neogenin): did not interact
interaction with the 6FNIII-domain of Neogenin [1]: interacted
B1: RGMaΔ: RGMaΔ was full-length RGMa (protein)
chain: CKILKCNSEFWAATSGSHHLGAEETPEFCTALRAYAHCTRRTARTCRGDLAYHSAVHGIDDLMVQHNCSKDGPTSQPRLRTLPPGDSQERSDSPEICHYEKSFHKHSAAPNYTHCGLFGDPHLRTFTDTFQTCKVQGAWPLIDNNYLNVQVTNTPVLPGSSATATSKLTIIFKSFQECVEQKVYQAEMDELPAAFADGSKNGGDKHGANSLKITEKVSGQHIEIQAKYIGTTIVVRQVGRYLTFAVRMPEEVVNAVEDRDSQGLYLCLRGCPLNQQIDFQTFRLAQAAEGRARRKGPSLPAPPEAFTYESATAKCREKLPVEDLYFQSCVFDLLTTGDVNFMLAAYYAFEDVKMLHSNKDKLHLYERTRALAPGN
effect on axonal outgrowth when provided as growth substrate (in trans) [3]: blocked axon growth

interaction with the 4Ig-domain of Neogenin (4Ig-domain of Neogenin): interacted
interaction with the 6FNIII-domain of Neogenin [1]: interacted
B2: N-RGMa: N-terminal RGMa isoform of the CNS (protein)
chain: MQPPRERLVVTGRAGWMGMGRGAGRSALGLWPTLAFLLCSFPAAISPCKILKCNSEFWSATSSGSHAPASDDVPEFCAALRTYALCTRRTARTCRGDLAYHSAVHGIEDLMSQHNCSKDGPTSQPRVRTLPPAGDSQERSDSPEICHYEKSFHKHSAAPNYT
modifications: Mouse N-RGMa
notes: N-terminal RGMa isoform of the CNS
effect on axonal outgrowth when provided as growth substrate (in trans) [3]: blocked axon growth
